Measured values taken from the nanobody polyreactivity screen of Harvey et al. (2022).

assay: yeast display, Sf9 membrane polyspecificity reagent, FACS + sequencing; frameworks hold sequencing errors
In short: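 After 36–48 hours of galactose induction, yeast (Saccharomyces cerevisiae BJ5465) displaying a synthetic nanobody library were stained at 4 °C for 1 hour with 10% biotinylated, detergent-solubilized Sf9 membrane reagent. Streptavidin microbeads enriched the stained cells before FACS sorting into low and high (top ~1%) gates on anti-HA and streptavidin fluorescence. Each clone's polyreactivity label reflects its gate of origin.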

Sequence | polyreactivity (PSR sort gate)
QVQLVESGGGLVQAGGSLRLSCAASGIIFGYNAMGWYRQAPGKERELVAAINQDGSSTYYADSVKGRFTISRDNAKNTVYLQMNSLKPEDTAVYYCNARGVPRQDARMGYWGQGTQVTVSS | low polyreactivity
QVQLVESGGGLVQAGGSLRLSCAASGIIFGYNAMGWYRQAPGKERELVAAISTSGGSTYYADSVKGRFTISRDNAKNTVYLQMNSLKPEDTAVYYCAAGYRRTYGFNYWGQGTQVTVSS | low polyreactivity
QVQLVESGGGLVQAGGSLRLSCAASGIIFGYYAMGWYRQAPGKERELVAAITWSGGSTYYADSVKGRFTISRDNAKNTVYLQMNSLKPEDSAVYYCNADDDGRVSSTIVEYWGQGTQVTVSS | low polyreactivity
QVQLVESGGGLVQAGGSLRLSCAASGIIFGYYAMGWYRQAPGKERELVAGISSSDSTYYADSVKGRFTISRDNAKNTVYLQMNSLKPEDTAVYYCATPVYRSTYEYDYWGQGTQVTVSS | low polyreactivity
QVQLVESGGGLVQAGGSLRLSCAASGIIFGYYAMGWYRQATGKERELVAAINGRTGSTYYADSVKGRFTISRDNAKNTVYLQMNSLKPEDTAVYYCTAQSYKFHGDYWGQGTQVTVSS | high polyreactivity
QVQLVESGGGLVQAGGSLRLSCAASGIIFGYYARGWYRQAPGKARELVAAISRGGNTNYADSVKGRFTISRDNAKNTVYLQMNSLKPEDTAVYYCAADFWSRIKYFYAVDVDYWGQGTQVTVSS | low polyreactivity
QVQLVESGGGLVQAGGSLRLSCAASGIIFHFNAMGWYRQARGKERELVASITRGGNTNYADSVKGRFTISRDNAKNTVYLQMNSLKPEDTAVYYCAAKYRSRYDWGQGTQVTVSS | low polyreactivity
QVQLVESGGGLVQAGGSLRLSCAASGIIFHFNDMGWYRQAPGKERELVAAIDSTGSTNYADSVKGRFTISRDNAKNTVYLQMNSLKPEDTAVYYCAVLNHRVDSVLTRYYYWGQGTQVTVSS | low polyreactivity
QVQLVESGGGLVQAGGSLRLSCAASGIIFHKYSMGWYRQAPGKERELVAVITWRGGTTYYADSVKGRFTISRDNAKNTVYLQMNSLKPEDTAVYYCAAKDRSPRVRYQYEYWGQGTQVTVSS | high polyreactivity
QVQLVESGGGLVQAGGSLRLSCAASGIIFIGYTMGWYRQAPGKERELVAAISRIGGSTYYADSVKGRFTISRDNAKNTVYLQMNSLKPEDTAVYYCAAQYYGSSYRRGYYWGQGTQVTVSS | high polyreactivity
QVQLVESGGGLVQAGGSLRLSCAASGIIFINYAMGWYRQAPGTERELVAVITRGGSTYYADSVKGRFTISRDNAKNTVYLQMNSLKPEDTAVYYCNARYLSWWTGRFNYWGQGTQVTVSS | high polyreactivity
QVQLVESGGGLVQAGGSLRLSCAASGIIFITYAMGWYRQAPGKERELVAAITNSGGGTYYADSVKGRFTISRDNAKNTVDLQMTSLKPEDTAVYYCAARKTAYGYRYDYWGQGTQVTVSS | high polyreactivity
QVQLVESGGGLVQAGGSLRLSCAASGIIFIYYGMGWYRQAPGKERELVAAIARSGGRTYYADSVKGRFTISRHNAKNTVYLQMHSLKPEETAVYYCATTYTPTGFDYWGQGPQVTVSS | high polyreactivity
QVQLVESGGGLVQAGGSLRLSCAASGIIFKGYAMGWYRQAPGKERELVAAISQSGGSTYYADSVKGRFTISRDNAKNTVYLQMNSLKPEDTAVYYCNARYSRVVPRYYYWGQGTQVTVSS | high polyreactivity
QVQLVESGGGLVQAGGSLRLSCAASGIIFKSYAMGWYRQAPGKERELVAAITKRGGSTYYADSVKGRFTISRDNAKNTVYLQMNSLKPEDTAVYYCAADDGVGNTDDYWGQGTQVTVSS | high polyreactivity
QVQLVESGGGLVQAGGSLRLSCAASGIIFKVNDMGWYRQAHGKEREFVAAITYSGDGTFYADSVKGRFTISRDNAKNTVYLQMNSLKPEDTAVYYCAADLPESPESYYDTDDYWGQGPQVTVSS | low polyreactivity
QVQLVESGGGLVQAGGSLRLSCAASGIIFKYYVMGWYRQAPGKERELVASIRWSGGITSYADSVKGRFTISRDNAKNTVYLQMNSLKPEDTAVYYCAVAHSRLRTAYTFSVQRYDYWGQGTQVTVSS | low polyreactivity
QVQLVESGGGLVQAGGSLRLSCAASGIIFLENAMGWYRQAPGKERELVAGISSGGNTNYADSVKGRFTISRDNAKNTVYLQMNSLKPEDTALYYCNKFGYHREYDYWGQVTQVTVSS | low polyreactivity
QVQLVESGGGLVQAGGSLRLSCAASGIIFLVNAMGWYRQAPGKESELVATITSGGSTYADSVKGRFTISRDNAKYTVYLQMNSLKPEDTAVYYCAAVRRRRNSYGYWGQGTQVTVSS | high polyreactivity
QVQLVESGGGLVQAGGSLRLSCAASGIIFLWYAMRWYRQAPGKERELVAAISRTGSSTYYADSVKGRFTISRDTAKNTVYLQMNSLKPEDTAVYYCAAAYYSNRSWRFDYWGQGTQVTVSS | high polyreactivity
QVQLVESGGGLVQAGGSLRLSCAASGIIFLYNDMGGYRHAPGKEREFVATISRSGGSTYYADSVKGRFTISRDNAKNTVYLQMNSLKPEDTAVYYCAADEDSGYGYWGQGTQVTVSS | low polyreactivity

Sequence | polyreactivity (PSR sort gate)
QVQLVESGGGLVQAGGSLRLSCAASGIIFNKYAMGWYRQAPGKEREFVAAITYRGGSTYYADSVKGRFTISRDNAKNTVYLQMNSLKPEDTAVYYCAARRITTYYYWGQGTQVTVSS | high polyreactivity
QVQLVESGGGLVQAGGSLRLSCAASGIIFNSNAMGWYRQAPGKERELVAAISVSGGSTYYADSVKGRFTISRDNAKNTVYLQMNILKPEDTAVYYCAAVFYYWSLRSYYWGQGTQVTVSS | high polyreactivity
QVQLVESGGGLVQAGGSLRLSCAASGIIFNWYAMGWYRQAPGKERELVAGISTSGGSTYYADSVKGRFTISRDNAKNTVYLQMNSLKPEDTAVYYCAARSRRYYGYDYWGQGTQVTVSS | high polyreactivity
QVQLVESGGGLVQAGGSLRLSCAASGIIFPFYGMGWYRPAPGKERELVAAITSGDDTYYADSVKGRFTISRDNAKNTVYLQMNSLKPEDTAVYYCNKRVYIAGYWPQLYYIMDYWGQGTQVTVSS | low polyreactivity
QVQLVESGGGLVQAGGSLRLSCAASGIIFPGYAMGWYRQAPGKERELVAAISRSGASTYYADSVKGRFTISRDNAKNTVYLQMNSLKPEDTAVYYCAAEWYRGGEYRRYDYWGQGTQVTVSS | high polyreactivity
QVQLVESGGGLVQAGGSLRLSCAASGIIFPGYAMGWYRQAPGKERELVAAISSSGSSTYYADSVKGRFTISRDNGKNTVYLQMNSLKPEDTAVYYCAAVRYGLRRMDYWGQGTQVTVSS | high polyreactivity
QVQLVESGGGLVQAGGSLRLSCAASGIIFPKYVMGWYRKAPGKERELVAAISWSGTSTYYADSVKGRFTISRDNAKNTVYLQMNSLKPEDTAVYYCAARWSSTTGRFDYWGQGTQVTVSS | high polyreactivity
QVQLVESGGGLVQAGGSLRLSCAASGIIFPPYAMGWYRQAPGKEREFVAGITSSGGTYYADSVKGRFTISRDNAKNTVFLQMNSLKPDDTAVYYCAARQGNLRRGFRWFNYWGQGTQVTVSS | high polyreactivity
QVQLVESGGGLVQAGGSLRLSCAASGIIFPRYAMGWYRQAPGKEREVVAAITSGGSTYYADSVKGRFTISRDNAKNTVYLQINSLKPEDTAVSYCAAVRYSWDIYREYYYWGQGTQVTVSS | high polyreactivity
QVQLVESGGGLVQAGGSLRLSCAASGIIFPRYAMGWYRQEPGKERELVAAITRRGGRTYYADSVKGRFTISRDNAKNTVYLQMNSLKPEDTAVYYCAARKVNRGSGGYDSWGQGTQVTVSS | high polyreactivity
QVQLVESGGGLVQAGGSLRLSCAASGIIFPSYAMGWYRQAPGKERELVAGISSGGNTYYADSVKGRFTISRDNAKNTVYLQMNSLKPEDTAVYYCATAFAIWGLYYGYDYWGQGTQVTVSS | low polyreactivity
QVQLVESGGGLVQAGGSLRLSCAASGIIFPSYDMGWYRQAPGKERELVAGITDGGDTTYADSVKWRFTISRDNAKNTVYLQMNSLKPEDTAVYYCAADIGYGYWHFDYWGQGTQVTVSW | low polyreactivity
QVQLVESGGGLVQAGGSLRLSCAASGIIFPWYDMGWYRQAPGKERELVAGITDGGDTTYADSVKWRFTISRDNAKNTVYLQMNSLKPEDTAVYYCAADIGYGYWHFDYWGQGTQVTVSS | low polyreactivity
QVQLVESGGGLVQAGGSLRLSCAASGIIFPWYTMGWYRQAPGKERELVAAISSGGRTNYADSVKGRFTISRDNAKYTVYLQMNSLKPEDTAVYYCAAKYYRDRDWGQGTQVTVSS | high polyreactivity
QVQLVESGGGLVQAGGSLRLSCAASGIIFPYYAMGLYRQAPGKERELVAAITSRTGSTYYADSVKGRFTISRDNAKNTVYLQMNSLNTEYTAVYYCIKEREPYGYWSFDYWGQGTQVTVSS | low polyreactivity
QVQLVESGGGLVQAGGSLRLSCAASGIIFPYYAMGWSRQGPGKERELVAGISSSGGITYADSVKGRFTISRDNAKYTVYLQMNSLKPEDTAVYYCNAEYQWLEYDYWGQGTQVTVSS | low polyreactivity
QVQLVESGGGLVQAGGSLRLSCAASGIIFPYYAMGWYRPAPGKERELVAAITSSGGSTYYADSVKGRFTISRDNAKNTVYLQMNSLKPEDSAVYYCAAQTWGHGGDSWGQGTQVTVSS | high polyreactivity
QVQLVESGGGLVQAGGSLRLSCAASGIIFPYYTMGWYRQAPGKERELVARITNGGRTYYADSVKGRFTISRDNAKNTVYLQMISLKPEDTAVYYCNAGRYYIGGYWGQGTQVTVSS | high polyreactivity
QVQLVESGGGLVQAGGSLRLSCAASGIIFQGYVMGWYRQAPGKERELVAVISRTRGSTYYADSVKGRFTISRDNAKNTVYLQMNSLKPEDTAVYYCAAGTPRLRYLQGHRMNYWGQGTQVTVSS | high polyreactivity
QVQLVESGGGLVQAGGSLRLSCAASGIIFQNYAMGWYRPAPGKERELVAVISNTGSTNYADSVKGRFTISRDNAKNTVYLQMNSLKPEDTAVYYCAAEFRVVDWLWFDYWGQGTQVTVSS | high polyreactivity
